# Experimental data as given in patent US20260069656A1, “Nutritive Polypeptides and Formulations Thereof, and Methods of Production and Use Thereof” (Axcella Health Inc., priority 2013, published 2026).
# Where two headings read alike, the source gives them in different places.
# Key:
# [1] = Intact half-life during simulated gastric fluid (SGF) digestion; settings: SGF pH 1.5, pepsin:polypeptide 1:20 w/w, 37° C.; produced in E. coli unless otherwise noted
# [2] = Rat pharmacokinetic studies, plasma amino acids by HPLC; settings: oral administration to rats, doses of Table E33A
# Procedure: (§1) Rat pharmacokinetic studies. Male Sprague Dawley rats with indwelling jugular vein cannula (JVC) were purchased from Harlan Laboratories and acclimated to the Test Facility (Agilux Laboratories) for at least two days prior to study initiation. Prior to dose administration animals were fasted overnight (11-13 h) and remained fasted until completion of the study. Test articles were orally administered via a bulb-tipped 18 gauge stainless steel gavage needle attached to a syringe. The weight of all dose syringes were recorded prior to and following dosing to more accurately determine the amount of solution dosed. Serial blood samples (˜300 μL) were collected from the JVC at time 0 (pre-dose) and 0.25, 0.5, 1, 2, and 4 h post-dose. Blood samples were collected into tubes containing the anti-coagulant K2EDTA, a general protease inhibitor cocktail (Sigma P8340, diluted 1:100 in whole blood), and a DPP IV inhibitor (Millipore DPP4, diluted 1:100 in whole blood). Immediately following blood collection tubes were vortexed and stored on wet ice until processing to plasma by centrifugation (3,500 rpm at 5° C.) within 1 h of collection. Plasma samples were then transferred into new tubes and stored at −80° C.
# (§2) The concentration of Glu, Ser, His, Gly, Thr, Arg, Ala, Tyr, Val, Met, Phe, Ile, Leu, and Lys in the plasma samples was determined by HPLC amino acid analysis, as described herein. Prior to HPLC amino acid analysis, insoluble particles were removed from plasma samples by centrifugation (1100×g at 4° C.) for 10 min. A 25 μL sample of the soluble fraction was then transferred to a 96-well plate, for some samples an internal standard (Norvaline, Agilent) was added to each plasma sample at final concentration of 0.5 mM.
# [3] = Solubility of proteins (lyophilized/reconstituted or ultrafiltered); settings: produced in E. coli unless otherwise noted
# Procedure: Solubility. […] Protein samples were dried by lyophilization on a FreeZone Freeze Dry System (Labconco) using the manufacturer's standard protocol and then resuspended in buffer to the desired concentration. Centrifugal and tangential ultrafiltration were used to selectively remove buffer from the protein sample until the desired concentration was reached. Centrifugal ultrafiltration of protein solutions was performed by centrifugation (10,000×g) of 10 mg of protein in an Amicon centrifugal filter (Millipore) with a molecular weight cutoff of 3 kDa, 10 kDa, or 30 kDa, depending on the protein size, until the desired contrentration was reached. Ultrafiltration of protein solutions was performed on Hydrosart ultrafiltration cassettes (Sartorius Stedim, Bohemia, NY) with a molecular weight cutoff of 3 kDa, 10 kDa, or 30 kDa, depending on the protein size, at a cross flow rate of 12 L/m2/min. For most processes, transmembrane pressure was maintained at 20 psi and performed until the desired contrentration was reached.
# The protein concentration of the above samples was measured by one or a combination of the following methods: Coomassie Plus Protein Assay, absorbance at 280 nm (A280), and total amino acid analysis. Coomassie Plus Protein Assays (Pierce) were performed according to the manufacturer's protocol. Absorbance at 280 nm was measured on a Nanodrop 2000 UV-Vis spectrophotometer. Protein concentration was determined using the A280 value and molar extinction coefficient, which was calculated by primary amino acid sequence using ProtParam (Gasteiger, Elisabeth, et al. The proteomics protocols handbook. Humana Press, 2005. 571-607.). Total amino acids were analyzed by HPLC after acid hydrolysis as described in Henderson, J. W., et al. Agilent Technologies (2010).
# [4] = Pancreatin-based in vitro digestion, free amino acids by RP-HPLC; settings: after 120 min SGF, Pancreatin SIF pH 6.5
# Procedure: In this method, pancreatin, a mixture of enzymes, is used to simulate intestinal proteases. Specifically, the digestion of polypeptides into amino acids was analyzed by an in vitro Pancreatin-based digestion assay followed by free amino acid analysis using reversed phase HPLC (RP-HPLC). The nutritive polypeptide was added to SGF (0.92 g/L Pepsin (Sigma), 0.03 M NaCl titrated with HCl to pH 1.5) at a final concentration of 4 g/L and incubated at 37° C. for 120 min. After 120 min, Na2CO3 was added to a final concentration of 16 mM to quench the pepsin reaction. […] Time points were sampled from the reaction and quenched by heating to 95° C. for 5 min. Control samples were protease-free.
# Analyses were performed using an Agilent 1100 series system. Primary amino acids were derivitized pre-column at room temperature, online, using o-phthalaldehyde (OPA). The OPA-derivatives were separated using the Zorbax Eclipse-AAA 4.6×150 mm, 3.5 μm column at 40° C. The separation gradient transitioned from 100% 40 mM Na2HPO4 pH 7.8 to 65% acetonitrile/methanol/water mixture (45/45/10) over 23 minutes. Analytes were detected by fluorescence at 340 nm Ex/450 nm Em.
# [5] = rat, in vivo, po
# Procedure: as §1, §2
# [6] = simulated gi fluid
# [7] = rat, in vivo
# Procedure: A rat pharmacokinetic study with oral administration of native and modified forms of SEQID-00363 was performed as described herein. The indigestible marker Cobalt-EDTA was formulated at 50 mg/L in the dosed protein solutions to monitor differences in intestinal transit rate between treatment groups and individual rats. Following the final blood collection (at t=4 h) rats were euthanized and the terminal ileum (20 cm of small intestine prior to the cecum) and its contents (the digesta) were collected into a pre-weighed tube. The ileum was flushed with saline and pooled with the digesta. The pH of the digesta was adjusted to ˜3.0 with HCl in order to inactivate all enzymes. The ileum samples were placed into separate pre-weighed 15 mL conical tubes. All samples were flash frozen in liquid nitrogen, and stored at −80° C. until further analysis. Individual ileum and ileum content weights were calculated and recorded for each sample.
# A sample of the digesta, which exists as a heterogenous solution containing insoluble particles, was used in the Coomassie Plus Protein Assay, as described herein, to determine protein concentration.
# [8] = Oral pharmacokinetics in humans, plasma amino acid concentrations; set-up: species or system human; settings: in vivo
# Procedure: The anabolic response to protein ingestion is predicated on the delivery of essential amino acids. The purpose of this study was to examine the changes in plasma amino acid concentrations in response to various proteins over a period of 240 minutes. […] Subjects were fasted overnight (>8 hrs) before oral pharmacokinetic study. […] Plasma amino acid concentrations were quantified by Quest Diagnostics or Laboratory Corporation of America. […] FIGS. 64-67 show the plasma time course of each measured amino acid and the aggregate groups, essential amino acids (EAA), branched chain amino acids (BCAA), and total amino acids (TAA), for WPI and SEQID-105. […] Subjects were fasted overnight (>8 hrs) before oral pharmacokinetic study. […] Plasma amino acid concentrations were quantified by Quest Diagnostics or Laboratory Corporation of America. The purpose of this study was to examine the changes in plasma amino acid concentrations in response to a methionine deficient nutritive protein over a period of 240 minutes. […] Plasma amino acid concentrations were quantified by Quest Diagnostics or Laboratory Corporation of America.
Molecule,SGF Half-life (t½) [1],Solubility [3],Free Leu (μM) at 120 min time point of Pancreatin digest [4],other results
"SEQID-00352: nutritive polypeptide naturally produced in Corn, recombinantly expressed in E. coli (protein, Zea mays) MATKRSVGTLGEADLKGKKVFVRADLNVPLDDAQKITDDTRIRASVPTIKFLLEKGAKVILASHLGRPKGVTPKYSLKPLVPRLSELLGVEVVMANDCIGEEVEKLAAALPEGGVLLLENVRFYKEEEKNEPEFAKKLASVADLYVNDAFGTAHRAHASTEGVTKYLKPAVAGFLMQKELDYLVGAVANPKKPFAAIVGGSKVSTKIGVIESLLAKVDILILGGGMIYTFYKAQGYSVGKSLVEEDKLELATSLIEKAKAKGVSLLLPTDIVVADKFAADAESKIVPATAIPDDWMGLDVGPDATKTFDEALDTTKTVIWNGPMGVFEFQKFAAGTEAIAKKLAELTTTKGVTTIIGGGDSVAAVEKAGLADKMSHISTGGGASLELLEGKTLPGVLALDDA",12 s,223 mg/mL,906.1 µM,change in AUC0-4 h for plasma Lys [2]: increased the change in AUC0-4 h for plasma Lys
"Deglycosylated SEQID-00363: SEQID-00363 with mannose glycans enzymatically reduced (protein, deglycosylated; Aspergillus niger) ATLDSWLSNEATVARTAILNNIGADGAWVSGADSGIVVASPSTDNPDYFYTWTRDSGLVLKTLVDLFRNGDTSLLSTIENYISAQAIVQGISNPSGDLSSGAGLGEPKFNVDETAYTGSWGRPQRDGPALRATAMIGFGQWLLDNGYTSTATDIVWPLVRNDLSYVAQYWNQTGYDLWEEVNGSSFFTIAVQHRALVEGSAFATAVGSSCSWCDSQAPEILCYLQSFWTGSFILANFDSSRSGKDANTLLGSIHTFDPEAACDDSTFQPCSPRALANHKEVVDSFRSIYTLNDGLSDSEAVAVGRYPEDTYYNGNPWFLCTLAAAEQLYDALYQWDKQGSLEVTDVSLDFFKALYSDAATGTYSSSSSTYSSIVDAVKTFADGFVSIVETHAASNGSMSEQYDKSDGEQLSARDLTWSYAALLTANNRRNSVVPASWGETSASSVPGTCAATSAIGTYSSVTVTSWPSIVATGGTTTTATPTGSGSVTSTSKTTATASKTSTSTSSTSCTTPTAVAVTFDLTATTTYGENIYLVGSISQLGDWETSDGIALSADKYTSSDPLWYVTVTLPAGESFEYKFIRIESDDSVEWESDPNREYTVPQACGTSTATVTDTWR",–,–,–,"bioavailability of amino acids (plasma free amino acids over 4 h) [5]: did not increase the bioavailability of Leucine or EAAs, it did increase the bioavailability of Serine and Threonine; SGF Half-life (t½) [6]: 258 s; total protein mass in digesta samples [7]: 7.7 mg"
"SEQID-00425: nutritive polypeptide (protein, listed as Kluyveromyces lactis) MSCLIPENLRNPKKVHENRLPTRAYYYDQDIFESLNGPWAFALFDAPLDAPDAKNLDWETAKKWSTISVPSHWELQEDWKYGKPIYTNVQYPIPIDIPNPPTVNPTGVYARTFELDSKSIESFEHRLRFEGVDNCYELYVNGQYVGFNKGSRNGAEFDIQKYVSEGENLVVVKVFKWSDSTYIEDQDQWWLSGIYRDVSLLKLPKKAHIEDVRVTTTFVDSQYQDAELSVKVDVQGSSYDHINFTLYEPEDGSKVYDASSLLNEENGNTTFSTKEFISFSTKKNEETAFKINVKAPEHWTAENPTLYKYQLDLIGSDGSVIQSIKHHVGFRQVELKDGNITVNGKDILFRGVNRHDHHPRFGRAVPLDFVVRDLILMKKFNINAVRNSHYPNHPKVYDLFDKLGFWVIDEADLETHGVQEPFNRHTNLEAEYPDTKNKLYDVNAHYLSDNPEYEVAYLDRASQLVLRDVNHPSIIIWSLGNEACYGRNHKAMYKLIKQLDPTRLVHYEGDLNALSADIFSFMYPTFEIMERWRKNHTDENGKFEKPLILCEYGHAMGNGPGSLKEYQELFYKEKFYQGGFIWEWANHGIEFEDVSTADGKLHKAYAYGGDFKEEVHDGVFIMDGLCNSEHNPTPGLVEYKKVIEPVHIKIAHGSVTITNKHDFITTDHLLFIDKDTGKTIDVPSLKPEESVTIPSDTTYVVAVLKDDAGVLKAGHEIAWGQAELPLKVPDFVTETAEKAAKINDGKRYVSVESSGLHFILDKLLGKIESLKVKGKEISSKFEGSSITFWRPPTNNDEPRDFKNWKKYNIDLMKQNIHGVSVEKGSNGSLAVVTVNSRISPVVFYYGFETVQKYTIFANKINLNTSMKLTGEYQPPDFPRVGYEFWLGDSYESFEWLGRGPGESYPDKKESQRFGLYDSKDVEEFVYDYPQENGNHTDTHFLNIKFEGAGKLSIFQKEKPFNFKISDEYGVDEAAHACDVKRYGRHYLRLDHAIHGVGSEACGPAVLDQYRLKAQDFNFEFDLAFE",18 s,190 mg/mL,713.1 µM,–
"SEQID-00429: nutritive polypeptide (protein, listed as Bacillus licheniformis) ANLKGTLMQYFEWYMPNDGQHWKRLQNDSAYLAEHGITAVWIPPAYKGTSQADVGYGAYDLYDLGEFHQKGTVRTKYGTKGELQSAIKSLHSRDINVYGDVVINHKGGADATEDVTAVEVDPADRNRVISGEHRIKAWTHFHFPGRGSTYSDFKWHWYHFDGTDWDESRKLNRIYKFQGKAWDWEVSNENGNYDYLMYADIDYDHPDVAAEIKRWGTWYANELQLDGFRLDAVKHIKFSFLRDWVNHVREKTGKEMFTVAEYWQNDLGALENYLNKTNFNHSVFDVPLHYQFHAASTQGGGYDMRKLLNGTVVSKHPLKAVTFVDNHDTQPGQSLESTVQTWFKPLAYAFILTRESGYPQVFYGDMYGTKGDSQREIPALKHKIEPILKARKQYAYGAQHDYFDHHDIVGWTREGDSSVANSGLAALITDGPGGAKRMYVGRQNAGETWHDITGNRSEPVVINSEGWGEFHVNGGSVSIYVQR",300 s,214 mg/mL,580.7 µM,–
"SEQID-00341: nutritive polypeptide (protein, listed as Saccharomyces cerevisiae, strain ATCC 204508 / S288c) MSTSREDSVYLAKLAEQAERYEEMVENMKTVASSGQELSVEERNLLSVAYKNVIGARRASWRIVSSIEQKEESKEKSEHQVELICSYRSKIETELTKISDDILSVLDSHLIPSATTGESKVFYYKMKGDYHRYLAEFSSGDAREKATNASLEAYKTASEIATTELPPTHPIRLGLALNFSVFYYEIQNSPDKACHLAKQAFDDAIAELDTLSEESYKDSTLIMQLLRDNLTLWTSDMSESGQAEDQQQQQQHQQQQPPAAAEGEAPK",12 s,166 mg/mL,1143.5 µM,–
"SEQID-00426: methionine deficient nutritive protein (protein, listed as Thermomyces lanuginosus) EVSQDLFNQFNLFAQYSAAAYCGKNNDAPAGTNITCTGNACPEVEKADATFLYSFEDSGVGDVTGFLALDNTNKLIVLSFRGSRSIENWIGNLNFDLKEINDICSGCRGHDGFTSSWRSVADTLRQKVEDAVREHPDYRVVFTGHSLGGALATVAGADLRGNGYDIDVFSYGAPRVGNRAFAEFLTVQTGGTLYRITHTNDIVPRLPPREFGYSHSSPEYWIKSGTLVPVTRNDIVKIEGIDATGGNNQPNIPDIPAHLWYFGLIGTCL",–,–,–,"change in AUC0-4 h for plasma Lys [5]: did not alter the change in AUC0-4 h for plasma Lys; plasma EAA time course vs basal, Dunnett multiple comparison test [8]: plasma EAA levels at the 30 and 60 min. time points are significantly different from the basal levels at time 0 min; plasma Methionine over time [8]: Methionine shows no significant change over time; plasma amino acid levels across time, 1-way ANOVA [8]: significant differences across time for Glu and EAA; SGF Half-life (t½) ([6]; pH 1.5): 18 s"
